Reference: article PMC5702604 (2017)

B1: Piezo1-GST fusion protein (mouse Piezo1) [mouse] / Flag-tagged SERCA2 (SERCA2b) [not stated] (parent complex)
chain 1: MEPHVLGAGLYWLLLPCTLLAASLLRFNALSLVYLLFLLLLPWLPGPSRHSIPGHTGRLLRALLCLSLLFLVAHLAFQICLHTVPHLDQFLGQNGSLWVKVSQHIGVTRLDLKDIFNTTRLVAPDLGVLLASSLCLGLCGRLTRKAGQSRRTQELQDDDDDDDDDDEDIDAAPAVGLKGAPALATKRRLWLASRFRVTAHWLLMTSGRTLVIVLLALAGIAHPSAFSSIYLVVFLAICTWWSCHFPLSPLGFNTLCVMVSCFGAGHLICLYCYQTPFIQDMLPPGNIWARLFGLKNFVDLPNYSSPNALVLNTKHAWPIYVSPGILLLLYYTATSLLKLHKSCPSELRKETPREDEEHELELDHLEPEPQARDATQGEMPMTTEPDLDNCTVHVLTSQSPVRQRPVRPRLAELKEMSPLHGLGHLIMDQSYVCALIAMMVWSIMYHSWLTFVLLLWACLIWTVRSRHQLAMLCSPCILLYGLTLCCLRYVWAMELPELPTTLGPVSLHQLGLEHTRYPCLDLGAMLLYLLTFWLLLRQFVKEKLLKKQKVPAALLEVTVADTEPTQTQTLLRSLGELVTGIYVKYWIYVCAGMFIVVSFAGRLVVYKIVYMFLFLLCLTLFQVYYTLWRKLLRVFWWLVVAYTMLVLIAVYTFQFQDFPTYWRNLTGFTDEQLGDLGLEQFSVSELFSSILIPGFFLLACILQLHYFHRPFMQLTDLEHVPPPGTRHPRWAHRQDAVSEAPLLEHQEEEEVFREDGQSMDGPHQATQVPEGTASKWGLVADRLLDLAASFSAVLTRIQVFVRRLLELHVFKLVALYTVWVALKEVSVMNLLLVVLWAFALPYPRFRPMASCLSTVWTCIIIVCKMLYQLKIVNPHEYSSNCTEPFPNNTNLQPLEINQSLLYRGPVDPANWFGVRKGYPNLGYIQNHLQILLLLVFEAVVYRRQEHYRRQHQQAPLPAQAVCADGTRQRLDQDLLSCLKYFINFFFYKFGLEICFLMAVNVIGQRMNFMVILHGCWLVAILTRRRREAIARLWPNYCLFLTLFLLYQYLLCLGMPPALCIDYPWRWSKAIPMNSALIKWLYLPDFFRAPNSTNLISDFLLLLCASQQWQVFSAERTEEWQRMAGINTDHLEPLRGEPNPIPNFIHCRSYLDMLKVAVFRYLFWLVLVVVFVAGATRISIFGLGYLLACFYLLLFGTTLLQKDTRAQLVLWDCLILYNVTVIISKNMLSLLSCVFVEQMQSNFCWVIQLFSLVCTVKGYYDPKEMMTRDRDCLLPVEEAGIIWDSICFFFLLLQRRIFLSHYFLHVSADLKATALQASRGFALYNAANLKSINFHRQIEEKSLAQLKRQMKRIRAKQEKYRQSQASRGQLQSKDPQDPSQEPGPDSPGGSSPPRRQWWRPWLDHATVIHSGDYFLFESDSEEEEEALPEDPRPAAQSAFQMAYQAWVTNAQTVLRQRRERARQERAEQLASGGDLNPDVEPVDVPEDEMAGRSHMMQRVLSTMQFLWVLGQATVDGLTRWLRAFTKHHRTMSDVLCAERYLLTQELLRVGEVRRGVLDQLYVGEDEATLSGPVETRDGPSTASSGLGAEEPLSSMTDDTSSPLSTGYNTRSGSEEIVTDAGDLQAGTSLHGSQELLANARTRMRTASELLLDRRLHIPELEEAERFEAQQGRTLRLLRAGYQCVAAHSELLCYFIIILNHMVTASAASLVLPVLVFLWAMLTIPRPSKRFWMTAIVFTEVMVVTKYLFQFGFFPWNSYVVLRRYENKPYFPPRILGLEKTDSYIKYDLVQLMALFFHRSQLLCYGLWDHEEDRYPKDHCRSSVKDREAKEEPEAKLESQSETGTGHPKEPVLAGTPRDHIQGKGSIRSKDVIQDPPEDLKPRHTRHISIRFRRRKETPGPKGTAVMETEHEEGEGKETTERKRPRHTQEKSKFRERMKAAGRRLQSFCVSLAQSFYQPLQRFFHDILHTKYRAATDVYALMFLADIVDIIIIIFGFWAFGKHSAATDIASSLSDDQVPQAFLFMLLVQFGTMVIDRALYLRKTVLGKLAFQVVLVVAIHIWMFFILPAVTERMFSQNAVAQLWYFVKCIYFALSAYQIRCGYPTRILGNFLTKKYNHLNLFLFQGFRLVPFLVELRAVMDWVWTDTTLSLSNWMCVEDIYANIFIIKCSRETEKKYPQPKGQKKKKIVKYGMGGLIILFLIAIIWFPLLFMSLIRSVVGVVNQPIDVTVTLKLGGYEPLFTMSAQQPSIVPFTPQAYEELSQQFDPYPLAMQFISQYSPEDIVTAQIEGSSGALWRISPPSRAQMKQELYNGTADITLRFTWNFQRDLAKGGTVEYTNEKHTLELAPNSTARRQLAQLLEGRPDQSVVIPHLFPKYIRAPNGPEANPVKQLQPDEEEDYLGVRIQLRREQVGTGASGEQAGTKASDFLEWWVIELQDCKADCNLLPMVIFSDKVSPPSLGFLAGYGIVGLYVSIVLVVGKFVRGFFSEISHSIMFEELPCVDRILKLCQDIFLVRETRELELEEELYAKLIFLYRSPETMIKWTRERE
chain 2: MENAHTKTVEEVLGHFGVNESTGLSLEQVKKLKERWGSNELPAEEGKTLLELVIEQFEDLLVRILLLAACISFVLAWFEEGEETITAFVEPFVILLILVANAIVGVWQERNAENAIEALKEYEPEMGKVYRQDRKSVQRIKAKDIVPGDIVEIAVGDKVPADIRLTSIKSTTLRVDQSILTGESVSVIKHTDPVPDPRAVNQDKKNMLFSGTNIAAGKAMGVVVATGVNTEIGKIRDEMVATEQERTPLQQKLDEFGEQLSKVISLICIAVWIINIGHFNDPVHGGSWIRGAIYYFKIAVALAVAAIPEGLPAVITTCLALGTRRMAKKNAIVRSLPSVETLGCTSVICSDKTGTLTTNQMSVCRMFILDRVEGDTCSLNEFTITGSTYAPIGEVHKDDKPVNCHQYDGLVELATICALCNDSALDYNEAKGVYEKVGEATETALTCLVEKMNVFDTELKGLSKIERANACNSVIKQLMKKEFTLEFSRDRKSMSVYCTPNKPSRTSMSKMFVKGAPEGVIDRCTHIRVGSTKVPMTSGVKQKIMSVIREWGSGSDTLRCLALATHDNPLRREEMHLEDSANFIKYETNLTFVGCVGMLDPPRIEVASSVKLCRQAGIRVIMITGDNKGTAVAICRRIGIFGQDEDVTSKAFTGREFDELNPSAQRDACLNARCFARVEPSHKSKIVEFLQSFDEITAMTGDGVNDAPALKKAEIGIAMGSGTAVAKTASEMVLADDNFSTIVAAVEEGRAIYNNMKQFIRYLISSNVGEVVCIFLTAALGFPEALIPVQLLWVNLVTDGLPATALGFNPPDLDIMNKPPRNPKEPLISGWLFFRYLAIGCYVGAATVGAAAWWFIAADGGPRVSFYQLSHFLQCKEDNPDFEGVDCAIFESPYPMTMALSVLVTIEMCNALNSLSENQSLLRMPPWENIWLVGSICLSMSLHFLILYVEPLPLIFQITPLNVTQWLMVLKISLPVILMDETLKFVARNYLEPGKECVQPATKSCSFSACTDGISWPFVLLIMPLVIWVYSTDTNFSDMFWS

Variants of: B1
Assay: GST pull-down, western blot quantification; co-expressed Flag-SERCA2; repeated 3 times; mean ± s.e.m.; parent: 1; read off a plot

Going from chain 1 K2182A, chain 1 K2183A, chain 1 K2184A, chain 1 K2185A to chain 1 E2172A, chain 1 K2173A, chain 1 K2174A, chain 1 Y2175A, chain 1 P2176A, chain 1 Q2177A, chain 1 P2178A, chain 1 K2179A, chain 1 G2180A, chain 1 Q2181A, the ratio to parent rises from about 0.3 to about 0.4.
